Target: T1, CD3 on Jurkat cells (human, UniProt P07766 23-207)
T1 construct: whole, on cells; the CD3 complex has several chains; also called T cells (Jurkat); J6 cells
Assay: binding to J6 cells; method not described

T1 sequence (P07766 23-207): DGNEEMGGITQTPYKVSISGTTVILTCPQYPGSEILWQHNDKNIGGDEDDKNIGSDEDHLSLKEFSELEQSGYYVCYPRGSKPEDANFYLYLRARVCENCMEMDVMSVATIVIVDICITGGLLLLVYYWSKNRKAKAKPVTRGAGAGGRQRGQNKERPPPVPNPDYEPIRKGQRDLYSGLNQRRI

Kd: 140 nM
B1: BsF(ab')2 v1 (anti-p185HER2/anti-CD3 v1) (bispecific antibody)
chain 1: not shown
chain 2: not shown
chain 3: DIQMTQSPSSLSASVGDRVTITCRASQDIRNYLNWYQQKPGKAPKLLIYYTSRLESGVPSRFSGSGSGTDYTLTISSLQPEDFATYYCQQGNTLPWTFGQGTKVEIK
chain 4: EVQLVESGGGLVQPGGSLRLSCAASGYSFTGYTMNWVRQAPGKGLEWVALINPYKGVTTYADSVKGRFTISVDKSKNTAYLQMNSLRAEDTAVYYCARSGYYGDSDWYFDVWGQGTLVTVSS
modifications: hinge Cys thioether-linked through o-PDM to the other Fab' arm

From patent US20100016556A1 (published 2010)
